{"source": "patent US20130116146A1", "about": "(University of California, published 2013)", "note": "Non-standard residues stand in square brackets, D forms with d. Primed or numbered codes have the meaning given here. No end group written: not given here. Me3″ = trimethyl (trimethyl-lysine); Ahx = NCCCCCC(=O)O"}
{"molecular_target": "T1, Polycomb protein chromodomain (a.a. 1-90), GST-tagged fusion protein (Drosophila melanogaster, UniProt P26017 1-90)", "T1 construct": "range 1-90; also called Polycomb-GST fusion protein; Polycomb chromodomain; not shown: GST tag", "T1 sequence (looked up)": "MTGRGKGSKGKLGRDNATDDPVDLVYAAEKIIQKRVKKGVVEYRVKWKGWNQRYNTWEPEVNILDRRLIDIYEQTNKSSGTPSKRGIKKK", "assay": "peptide microarray, GST-Polycomb chromodomain overlaid on trimethylated peptides, p<0.001 in at least two of three spots", "from_the_text": "There are a total of 46 histone peptide sequences (9 a.a. long) with a single lysine-trimethylation site which are conserved between the human and fruit fly H2, H3 and H4 proteins (Table II). These were screened for Polycomb protein chromodomain binding by peptide microarray. Each peptide sequence was screened as triplets, and the fluorescence intensity was quantified with background subtraction individually for each spot from the microarray images by ImageJ⁹ and the whole data set was fit to a mixed Gaussian distribution model (FIG. 8, Table III).\nThe peptide microarray was rinsed with TBST buffer (25 mM Tris, 125 mM NaCl, 0.05% Tween-20, pH 8) followed by blocking with 5% non-fat milk in TBST (room temperature 1 hour or 4° C. overnight). The slide was then incubated at 4° C. with Polycomb-GST fusion protein at a final concentration of […] in 5% non-fat milk/TBST for 6 hours. After washing three times for 10 minutes each with TBST, the slide was incubated with an anti-GST mouse monoclonal IgG antibody (Thermo) at a final concentration of 1 μg/mL in 5% non-fat milk/TBST and shaken gently for 1 hour at room temperature. […] The slide was shaken for 1 hr at room temperature and washed three times with TBST."}
{"binder": "RIHRLLRK(Me3″)G (also called H2A1A 35)", "note": "[RIHRLLRKG, H2A_DROME lysine site 35, trimethylated]", "binding result": "binds"}
{"binder": "DSGKAKAK(Me3″)A (also called H2AV 15)", "note": "[DSGKAKAKA, H2AV_DROME lysine site 15, trimethylated]", "binding result": "binds"}
{"binder": "GGAKRHRK(Me3″)V (also called H4 20)", "note": "[GGAKRHRKV, H4_DROME lysine site 20, trimethylated]", "binding result": "binds"}
{"binder": "MDVVYALK(Me3″)R (also called H4 91)", "note": "[MDVVYALKR, H4_DROME lysine site 91, trimethylated]", "binding result": "binds"}
{"binder": "GRIHRHLK(Me3″)S (also called H2AZ 37)", "note": "[GRIHRHLKS, H2AV_DROME lysine site 37, trimethylated]", "binding result": "binds"}
{"binder": "IQAVLLPK(Me3″)K (also called H2A1 117)", "note": "[IQAVLLPKK, H2A_DROME lysine site 117, trimethylated]", "binding result": "binds"}
{"binder": "EGTKAVTK(Me3″)Y (also called H2B1A 117)", "note": "[EGTKAVTKY, H2B_DROME lysine site 117, trimethylated]", "binding result": "binds"}
{"binder": "ASKDLKVK(Me3″)R (also called H2AZ, H2AV 79)", "note": "[ASKDLKVKR, H2AV_DROME lysine site 79, trimethylated]", "binding result": "binds"}
{"binder": "PRKQLATK(Me3″)A (also called H3.3 23)", "note": "[PRKQLATKA, H3_DROME lysine site 23, trimethylated]", "binding result": "binds"}
{"binder": "RTKQTARK(Me3″)S (also called H3.3 9)", "note": "[RTKQTARKS, H3_DROME lysine site 9, trimethylated]", "binding result": "binds"}
{"binder": "LATKAARK(Me3″)S (also called H3K27me3; H3.3 27)", "note": "[LATKAARKS, H3_DROME lysine site 27, trimethylated]", "binding result": "binds"}
{"binder": "REIRRYQK(Me3″)S (also called H3.3 56)", "note": "[REIRRYQKS, H3_DROME lysine site 56, trimethylated]", "binding result": "binds"}
{"molecular_target": "T2, GST-tagged Abl SH3 domain fusion protein (human, UniProt P00519 61-121, limits assumed)", "T2 construct": "domain: SH3 domain; also called GST-Abl SH3; Abl1 SH3 domain; not shown: GST tag", "T2 sequence (P00519 61-121 limits assumed)": "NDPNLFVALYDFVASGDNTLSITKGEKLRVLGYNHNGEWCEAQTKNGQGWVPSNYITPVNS", "assay": "peptide microarray, GST-Abl SH3 5 uM overlaid, peptide printed at 1 mg/ml, Cy3 fluorescence, triplicates", "procedure": "All peptides were synthesized by Sigma-Aldrich. The peptides were printed onto glass slides in triplicates by ArrayIt Corporation. A buffer blank and a Cy3 marker were also printed in triplicates. The peptide arrays were blocked with the blocking buffer (5% non-fat dry milk, TBS pH8.0, 0.05% Tween 20) for an hour at room temperature. Next, the peptide arrays were incubated overnight at 4° C. with purified GST-Abl SH3 in the blocking buffer at a final concentration of 5 μM. After washing three times for ten minutes with the TBST buffer (TBS pH8.0, 0.05% Tween 20), an anti-GST antibody (Santa Cruz Biotechnology) was added to a final concentration of 0.2 μg/ml in the blocking buffer for one hour at room temperature. The arrays were then washed three times for ten minutes with the TBST buffer. Finally, the arrays were incubated with the secondary antibody, Cy3-conjugated goat-anti-mouse IgG (H+L) (Jackson ImmunoResearch), for one hour at room temperature, followed by washing for three times for ten minutes with the TBST buffer. As a control, the peptide array was incubated with the anti-GST and the secondary antibodies alone.\nTo analyze the microarray data, the spots that were flagged as noisy were first removed. For the high (1 mg/ml) and low (0.5 mg/ml) printing concentrations, 724 and 767 (out of 800) spots remained for later analyses, respectively. Next, the statistical cut-off was determined for the significant fluorescence signal by modeling the background intensity distribution using a Gamma distribution (FIG. 4). The spots were binned based on the fluorescence intensity. To have a better curve fitting, the long tail of the histogram that represented strong binding peptides was removed and only the bins with intensity less than 900 and 1500 for the high and low concentrations, respectively, were kept. The model fitting and p-value calculation were conducted using R and P-value of 0.05 was used as the cutoff."}
{"binder": "APTVPPPLPP (not fully specified (N-terminus))", "note": "[3BP1_HUMAN 616-625 peptide APTVPPPLPP]", "Average fluorescence intensity (high printing concentration)": 45100}
{"binder": "SPPLPPPPPP (not fully specified (N-terminus))", "note": "[RAPH1_HUMAN 677-686 peptide SPPLPPPPPP]", "Average fluorescence intensity (high printing concentration)": 17500}
{"binder": "[Ahx]PPPPPPPGPP (protein label as printed)", "note": "[WASP2_HUMAN 394-403 peptide PPPPPPPGPP]", "Average fluorescence intensity (high printing concentration)": 2380}
{"binder": "[Ahx]LPPPPLPPPP", "note": "[YLPM1_HUMAN 81-90 peptide LPPPPLPPPP]", "Average fluorescence intensity (high printing concentration)": 595}
{"binder": "PNQVPPPPPP (not fully specified (N-terminus))", "note": "[ENAH_HUMAN 357-366 peptide PNQVPPPPPP]", "Average fluorescence intensity (high printing concentration)": 58000}
{"binder": "PPAYPPPPVP (not fully specified (N-terminus))", "note": "[3BP2_HUMAN 201-210 peptide PPAYPPPPVP]", "Average fluorescence intensity (high printing concentration)": 29700}
{"binder": "PPAVPPPPVP (not fully specified (N-terminus))", "note": "[RIN1_HUMAN 259-268 peptide PPAVPPPPVP]", "Average fluorescence intensity (high printing concentration)": 42600}
{"binder": "[Ahx]APSGPPPPPP", "note": "[WASL_HUMAN 354-363 peptide APSGPPPPPP]", "Average fluorescence intensity (high printing concentration)": 52300}
{"binder": "CPLQPPPPPP (not fully specified (N-terminus))", "note": "[PDE4D_HUMAN peptide CPLQPPPPPP]", "Average fluorescence intensity (high printing concentration)": 840}
{"binder": "PPPPPVPPPP (not fully specified (N-terminus))", "note": "[EVL_HUMAN 185-194 peptide PPPPPVPPPP]", "Average fluorescence intensity (high printing concentration)": 4680}
{"binder": "[Ahx]PPPPPMPPPP", "note": "[YLPM1_HUMAN 102-111 peptide PPPPPMPPPP]", "Average fluorescence intensity (high printing concentration)": 22800}
{"binder": "[Ahx]PVAPPPPPPP", "note": "[WASL_HUMAN 370-379 peptide PVAPPPPPPP]", "Average fluorescence intensity (high printing concentration)": 48800}
{"binder": "[Ahx]VAPPPPPPPP", "note": "[WASL_HUMAN 371-380 peptide VAPPPPPPPP]", "Average fluorescence intensity (high printing concentration)": 914}
{"binder": "PPSLPPPPPP (not fully specified (N-terminus))", "note": "[CBLB_HUMAN 818-827 peptide PPSLPPPPPP]", "Average fluorescence intensity (high printing concentration)": 35000}
{"binder": "[Ahx]GPVAPPPPPP", "note": "[WASL_HUMAN 369-378 peptide GPVAPPPPPP]", "Average fluorescence intensity (high printing concentration)": 45000}
{"binder": "APPTPPPPPP (not fully specified (N-terminus))", "note": "[RAPH1_HUMAN 811-820 peptide APPTPPPPPP]", "Average fluorescence intensity (high printing concentration)": 54400}
{"binder": "[Ahx]PPAGGPPPPP (protein label as printed)", "note": "[VASP2_HUMAN 165-174 peptide PPAGGPPPPP]", "Average fluorescence intensity (high printing concentration)": 26200}
{"binder": "[Ahx]GPPMPPPPPP", "note": "[WASP_HUMAN 390-399 peptide GPPMPPPPPP]", "Average fluorescence intensity (high printing concentration)": 23400}
{"binder": "[Ahx]SRGGPPPPPP", "note": "[WASL_HUMAN 283-292 peptide SRGGPPPPPP]", "Average fluorescence intensity (high printing concentration)": 744}
{"binder": "[Ahx]GRGGPPPPPP", "note": "[WASP_HUMAN 363-372 peptide GRGGPPPPPP]", "Average fluorescence intensity (high printing concentration)": 1300}
{"binder": "LPPGPPPPVP (not fully specified (N-terminus))", "note": "[CPSF6_HUMAN 292-301 peptide LPPGPPPPVP]", "Average fluorescence intensity (high printing concentration)": 1900}
